B1: SlASR1 promoter CArG (26 bp) (dsDNA)
DNA 1: AAGCAAAACATAAAATTGACTTGAAT
DNA 2: ATTCAAGTCAATTTTATGTTTTGCTT
B2: CArG (26 bp, box 6) (dsDNA)
DNA 1: TTCATATTCCAAAATTTGATATTTTA
DNA 2: TAAAATATCAAATTTTGGAATATGAA
B3: mCArG (26 bp, box 6 mutated) (dsDNA)
DNA 1: TTCATATTTCAAAATTTAATATTTTA
DNA 2: TAAAATATTAAATTTTGAAATATGAA
B4: CArG box 5 (26 bp) (dsDNA)
DNA 1: CACAAAAACATAATTATGCTTCTTAC
DNA 2: GTAAGAAGCATAATTATGTTTTTGTG

Legend:
[1] = biological target: T1, RIN139N (GST-RIN, N-terminal) (Solanum lycopersicum, UniProt Q8S4L4 1-139); assay: EMSA; 20 mM HEPES pH 7.5, 20% glycerol, 0.05 ug poly(dIdC), 2.5 mM EDTA, 2.5 mM DTT, 25 mM NaCl, plus 0.8 mM ZnCl2 (SlASR1) or 10 mM MgCl2 (RIN), 25 C, 30 min; 6% native PAGE 0.5x TBE; details: protein: recombinant; tags: N-terminal GST; chain copies: 2; label: 5'-32P
[2] = biological target: T1, RIN139N (GST-RIN, N-terminal); assay: EMSA; intense signal; 20 mM HEPES pH 7.5, 20% glycerol, 0.05 ug poly(dIdC), 2.5 mM EDTA, 2.5 mM DTT, 25 mM NaCl, plus 0.8 mM ZnCl2 (SlASR1) or 10 mM MgCl2 (RIN), 25 C, 30 min; 6% native PAGE 0.5x TBE; details: protein: recombinant; tags: N-terminal GST; chain copies: 2; label: 5'-32P

T1 sequence (Q8S4L4 entry or part of it): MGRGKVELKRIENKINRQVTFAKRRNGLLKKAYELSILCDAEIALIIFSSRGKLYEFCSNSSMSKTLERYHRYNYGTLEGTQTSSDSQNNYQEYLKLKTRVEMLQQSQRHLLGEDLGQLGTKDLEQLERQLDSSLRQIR

Row | Binder | binding result [1] | binding result [2]
1 | B1 | binds | –
2 | B2 | – | binds
3 | B3 | no binding | –
4 | B4 | – | binds

Reference: publication PMC4203122, “Insights into transcriptional regulation of β-D-N-acetylhexosaminidase, an N-glycan-processing enzyme involved in ripening-associated fruit softening”
